# Measurements from patent publication US12366576B2, “Compositions, assays, and methods for direct modulation of fatty acid metabolism” (Dana-Farber Cancer Institute, Inc., priority 2016, dated 2025).
# Bridge positions count the residues as written; N and C are the ends. Square brackets hold non-standard residues; d marks the D form. Ends that are not written are not given here. S5 = C=CCCC[C@](C)(N)C(=O)O
# Key:
# VLCAD [1] = biological target: T1, VLCAD (Homo sapiens, UniProt P49748); assay: Biolayer interferometry; format: binding; conditions: Biotin-PEG peptide immobilized on streptavidin sensors
# T1 construct: 10x His (N); made in house; host or cells: E. coli BL21(DE3), pET19b
# T1 sequence (P49748 40-655): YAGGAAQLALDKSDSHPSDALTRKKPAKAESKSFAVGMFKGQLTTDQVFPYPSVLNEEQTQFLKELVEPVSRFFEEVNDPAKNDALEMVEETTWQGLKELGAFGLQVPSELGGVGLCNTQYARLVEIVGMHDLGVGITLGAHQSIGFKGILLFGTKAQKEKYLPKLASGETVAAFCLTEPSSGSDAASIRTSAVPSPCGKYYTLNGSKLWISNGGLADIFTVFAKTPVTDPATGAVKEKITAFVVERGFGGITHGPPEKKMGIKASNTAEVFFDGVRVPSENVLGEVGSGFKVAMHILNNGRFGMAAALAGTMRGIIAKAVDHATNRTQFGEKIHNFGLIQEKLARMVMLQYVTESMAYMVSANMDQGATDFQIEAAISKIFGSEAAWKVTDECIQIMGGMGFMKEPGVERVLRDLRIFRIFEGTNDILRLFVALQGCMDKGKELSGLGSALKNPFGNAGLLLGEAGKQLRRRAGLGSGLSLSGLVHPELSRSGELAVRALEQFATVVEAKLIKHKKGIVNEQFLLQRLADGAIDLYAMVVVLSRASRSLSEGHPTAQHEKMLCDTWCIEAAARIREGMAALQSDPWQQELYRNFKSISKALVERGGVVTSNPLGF
# Description: To measure the direct binding interaction, ^19F NMR binding studies were conducted using fluorinated analogs of MCL-1 SAHBD. […] Both SAHBs, however, bind MCL-1ΔNΔC, as illustrated by a chemical shift of the peptide NMR peak in both cases (FIG. 15). […] To perform these experiments, N-terminal Btn-PEG analogs of the peptides were immobilized onto streptavidin probes that were then placed into protein solutions at a variety of concentrations to measure ligand-target association.
# VLCAD. Mature human VLCAD lacking its cleavable leader sequence (aa 40-655) (NP_000009.1) was subcloned into the pET19b vector (Novagen) using NdeI and XhoI restriction sites. Correct insertion was confirmed by DNA sequencing. The 10× His-tagged VLCAD construct was expressed in BL21(DE3) E. coli, and once cells reached an OD of 0.8 after growing at 37° C., they were induced with 0.5 mM […] (IPTG) (Gold Biotechnology I2481C) at 37° C. for 4 hours. Bacterial pellets were resuspended in lysis buffer (500 mM NaCl, 50 mM HEPES, 5% glycerol, pH 7.5, complete protease inhibitor tablet) and lysed by microfluidization (M-110L; Microfluidics). […]
# BLI binding measurements were performed using an Octet Red384 System (ForteBio). […] Binding parameters were calculated using the accompanying Octet Software version 9 (ForteBio).
# VLCAD [2] = biological target: T1, VLCAD; assay: In vitro VLCAD enzymatic activity assay (palmitoyl-CoA, ferrocenium hexafluorophosphate); format: biochemical; conditions: 0.75 μM VLCAD pre-incubated overnight at 4° C. with 75 μM SAHB; substrate palmitoyl-CoA
# Description: To assess whether the direct MCL-1/VLCAD binding interaction influences VLCAD enzymatic activity, an in vitro enzymatic activity assay was conducted. Recombinant VLCAD was incubated with its substrate (palmitoyl-CoA) and ferrocenium hexafluorophosphate, a strong electrophile. As VLCAD acts upon its substrate and oxidizes it, the ferrocenium hexafluorophosphate is reduced, causing a change in absorbance that is readily measured.
# VLCAD. Mature human VLCAD lacking its cleavable leader sequence (aa 40-655) (NP_000009.1) was subcloned into the pET19b vector (Novagen) using NdeI and XhoI restriction sites. Correct insertion was confirmed by DNA sequencing. […]
# VLCAD enzymatic activity was measured as previously described (see, e.g., Doulias et al., Sci Signal, 6(256):rs1 (2013); Lehman et al., Anal. Biochem., 186(2):280-284 (1990)). […] Where VLCAD activity was assessed in the presence of MCL-1 SAHBs, 0.75 μM VLCAD was incubated overnight at 4° C. with 75 μM SAHB and the protein-peptide mixture was used to initiate the ferrocenium reaction. Decrease in ferrocenium absorbance as a function of time at 300 nm was recorded and the initial velocity (V0) was calculated in units of U/mg using the molar absorptivity of ferrocenium (ε=4.3 mM^−1 cm^−1 at 300 nm) (see, e.g., Izai et al.). […]
# CreER^T2 MEFs = assay: MS-based acylcarnitine quantification in MEFs; format: cell-based, mouse; conditions: 10 μM
substance,measurement,setting,value
"MCL-1 SAHBD: hydrocarbon-stapled peptide mimicking the MCL-1 BH3 domain (Stabilized Alpha-Helix of BCL-2 Domain), SEQ ID NO:19 (RKALETLRRVGDGV[S5]RNH[S5]TAF; staple 15-19)",biolayer interferometry association with VLCAD,VLCAD [1],engages VLCAD
same,effect on VLCAD enzymatic activity,VLCAD [2],caused a decrease in enzymatic activity
same,levels of very long-chain acylcarnitines relative to vehicle-treated control,"CreER^T2 MEFs; Mcl-1^F/F CreER^T2 MEFs not exposed to tamoxifen, 48 hours",elevated levels
same,effect on already elevated acylcarnitine levels,CreER^T2 MEFs; Mcl-1^F/F CreER^T2 MEFs subjected to tamoxifen (Mcl-1 deleted),no effect
